Measured values: publication PMC5405865

Experiments:
[1] = molecular target: The RNCs, denoted FLN5+L (with L = 21 to 110); test: co-purification with the RNC, western blot
70S ribosomes = test: NMR titration

## DnaK (from UniProt P0A6Y8 1-638) (natural protein)
[1]
  occupancy of the purified RNCs: < 1.5%

## FLN5 Y719E, isolated unfolded variant of FLN5 (from UniProt P13466 646-750) (domain or fragment)
70S ribosomes
  reduction in resonance intensities with equimolar 70S ribosomes: 30%

## FLN5∆12, 12-residue C-terminal truncation of isolated FLN5 (from UniProt P13466 646-738) (domain or fragment)
70S ribosomes
  reduction in resonance intensities with equimolar 70S ribosomes: 30%

## trigger factor (from UniProt P0A850 1-432) (natural protein)
[1]
  occupancy of the purified RNCs: < 1.5%
